B1: FCN18 (ssRNA)
RNA: GGGAGAUAAGAAUAAACGCUCAAAUGAACGACCGCGGGCAGUCGCGUUCAAAUGAGUGGUUUUUUCGACAGGAGGCUCACAACAGGC
modifications: 2'-F pyrimidines
B2: FCN22 (ssRNA)
RNA: GGGAGAUAAGAAUAAACGCUCAAGUGAGAAAUGUCGGGGGCGAUGACUUGGACGGUCCACCGUUCGACAGGAGGCUCACAACAGGC
modifications: 2'-F pyrimidines
B3: FCN59 (ssRNA)
RNA: GGGAGAUAAGAAUAAACGCUCAAAUGAUGCUCCUGAAGUAAUCACCAGGACAUCCUCGGCAUUUCGACAGGAGGCUCACAACAGGC
modifications: 2'-F pyrimidines
B4: FCN54 (ssRNA)
RNA: GGGAGAUAAGAAUAAACGCUCAACUGGGCUCAUCCGGCGAAUGAUGCAAGGAAGAUUUCACAUUUCGACAGGAGGCUCACAACAGGC
modifications: 2'-F pyrimidines
B5: FCN69 (ssRNA)
RNA: GGGAGAUAAGAAUAAACGCUCAAGAUUGACACGCACUCCAAUGGCUCUGAAGUGUUCGUGUGCUUCGACAGGAGGCUCACAACAGGC
modifications: 2'-F pyrimidines
B6: FCN21 (ssRNA)
RNA: GGGAGAUAAGAAUAAACGCUCAAAGUUUGGAUUCGGCAGGUGCUGAGACUUUGAUAGCCACUAUUCGACAGGAGGCUCACAACAGGC
modifications: 2'-F pyrimidines
B7: FCN13 (ssRNA)
RNA: GGGAGAUAAGAAUAAACGCUCAACGUGAUGACAGCUCGGACGGCUCAUUGCGCGGAGUAGCUAUUCGACAGGAGGCUCACAACAGGC
modifications: 2'-F pyrimidines
B8: FCN12 (ssRNA)
RNA: GGGAGAUAAGAAUAAACGCUCAAAGAGAGGAACUGCGAUUCAGACCAAAACGGAAAUGGCUGUUUCGACAGGAGGCUCACAACAGGC
modifications: 2'-F pyrimidines
B9: FCN9 (ssRNA)
RNA: GGGAGAUAAGAAUAAACGCUCAACGUUGAAAUCGCUCCUCAGUGUGAGUUGAAUCAGCUGACCUUCGACAGGAGGCUCACAACAGGC
modifications: 2'-F pyrimidines
B10: FC34 (ssRNA)
RNA: GGGAGAUAAGAAUAAACGCUCAAAAGGCCGAACAACGAAGUUUGAUUCAGGUACUCAGCGUUCUUCGACAGGAGGCUCACAACAGGC
modifications: 2'-F pyrimidines
B11: FCN56 (ssRNA)
RNA: GGGAGAUAAGAAUAAACGCUCAACGGCUCGAUGCUAGCUGGGACGGCUCAUUGAGACUGGUUGUUCGACAGGAGGCUCACAACAGGC
modifications: 2'-F pyrimidines
B12: FC9 (ssRNA)
RNA: GGGAGAUAAGAAUAAACGCUCAAGCAAUCUCGGACUAGACCAACGACCUUCGUUUGACGCUCAUUCGACAGGAGGCUCACAACAGGC
modifications: 2'-F pyrimidines
B13: FCN27 (ssRNA)
RNA: GGGAGAUAAGAAUAAACGCUCAAAAAGUCGUGUGCGAGAGGCUCAGAUUUAAUGCGGAGGAUUCGACAGGAGGCUCACAACAGGC
modifications: 2'-F pyrimidines
B14: FCN49 (ssRNA)
RNA: GGGAGAUAAGAAUAAACGCUCAAGAAUGGAGCCAAGAAAGACAGCGAUGUCUCGGACGAUGAGUUCGACAGGAGGCUCACAACAGGC
modifications: 2'-F pyrimidines
B15: FCN58 (ssRNA)
RNA: GGGAGAUAAGAAUAAACGCUCAAGGAUGGAGCCAAGAAAGACAGCGAUGUCUCGGACGAUGAGUUCGACAGGAGGCUCACAACAGGC
modifications: 2'-F pyrimidines
B16: FCN6 (ssRNA)
RNA: GGGAGAUAAGAAUAAACGCUCAACAACGAUUAUCUUUUCGGCCGUGAAACCCAAACUGACGCCUUCGACAGGAGGCUCACAACAGGC
modifications: 2'-F pyrimidines

By Kd is commonly meant the concentration at which binding is half-saturated. Lower therefore signals tighter binding.

The target of this series is Fibrinogen (Homo sapiens, UniProt P02671-2;P02675;P02679-2 P02671-2:20-644,P02675:31-491,P02679-2:27-437). Kind of series: filter; low class; printed l mM, probably uM. Particulars: chain copies: 2.
Sequence of Fibrinogen (P02671 other isoform, or with tags, fused parts or gaps, chain 1 of 3): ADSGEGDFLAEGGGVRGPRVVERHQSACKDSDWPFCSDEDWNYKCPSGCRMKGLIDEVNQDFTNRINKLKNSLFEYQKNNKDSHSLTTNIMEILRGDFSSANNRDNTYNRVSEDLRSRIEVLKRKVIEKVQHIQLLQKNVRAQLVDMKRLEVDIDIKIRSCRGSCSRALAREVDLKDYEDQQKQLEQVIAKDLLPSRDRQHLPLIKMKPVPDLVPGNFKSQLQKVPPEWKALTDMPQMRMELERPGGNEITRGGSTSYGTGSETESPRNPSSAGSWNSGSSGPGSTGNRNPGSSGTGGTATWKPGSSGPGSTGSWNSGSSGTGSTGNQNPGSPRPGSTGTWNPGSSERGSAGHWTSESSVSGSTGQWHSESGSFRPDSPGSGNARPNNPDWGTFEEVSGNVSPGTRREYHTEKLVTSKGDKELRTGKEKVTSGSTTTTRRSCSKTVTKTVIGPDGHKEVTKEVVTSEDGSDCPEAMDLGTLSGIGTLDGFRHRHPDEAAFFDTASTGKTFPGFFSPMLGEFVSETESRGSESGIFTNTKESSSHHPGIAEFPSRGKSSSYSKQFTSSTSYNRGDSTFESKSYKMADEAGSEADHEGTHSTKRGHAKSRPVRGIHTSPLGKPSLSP
Sequence of Fibrinogen (P02675 31-491, chain 2 of 3): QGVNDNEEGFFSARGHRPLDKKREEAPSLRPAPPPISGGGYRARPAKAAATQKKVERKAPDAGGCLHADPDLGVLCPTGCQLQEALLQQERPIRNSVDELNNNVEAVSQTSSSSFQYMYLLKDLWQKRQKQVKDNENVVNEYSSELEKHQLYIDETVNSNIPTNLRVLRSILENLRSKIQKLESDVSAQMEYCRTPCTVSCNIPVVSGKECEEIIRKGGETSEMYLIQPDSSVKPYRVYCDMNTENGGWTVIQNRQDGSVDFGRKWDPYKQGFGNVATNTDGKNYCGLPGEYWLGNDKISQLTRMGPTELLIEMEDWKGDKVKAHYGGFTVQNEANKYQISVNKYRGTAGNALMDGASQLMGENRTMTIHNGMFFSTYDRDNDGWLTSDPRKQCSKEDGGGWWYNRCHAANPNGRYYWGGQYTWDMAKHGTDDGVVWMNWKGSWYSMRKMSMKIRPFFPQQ
Sequence of Fibrinogen (P02679 other isoform, or with tags, fused parts or gaps, chain 3 of 3): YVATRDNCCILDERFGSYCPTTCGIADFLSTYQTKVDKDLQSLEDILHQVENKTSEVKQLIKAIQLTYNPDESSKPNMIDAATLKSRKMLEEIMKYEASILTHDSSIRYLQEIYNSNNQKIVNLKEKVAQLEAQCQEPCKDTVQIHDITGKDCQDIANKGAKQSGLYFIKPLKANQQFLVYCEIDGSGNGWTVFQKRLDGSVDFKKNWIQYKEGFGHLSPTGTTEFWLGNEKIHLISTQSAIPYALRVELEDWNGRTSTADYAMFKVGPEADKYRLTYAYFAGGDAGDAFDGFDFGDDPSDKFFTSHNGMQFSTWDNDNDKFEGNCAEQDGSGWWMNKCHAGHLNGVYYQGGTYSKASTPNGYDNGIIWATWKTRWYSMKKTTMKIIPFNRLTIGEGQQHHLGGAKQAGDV
In turn, B1 showed a Kd above 1000 nM. As for B2, the figure is above 1000 nM; as for B3, above 1000 nM; as for B4, above 1000 nM. The value for B5 was above 1000 nM. B6 registered a Kd above 1000 nM. The value for B7 was above 1000 nM. The value for B8 was above 1000 nM; that for B9 was above 1000 nM.

Molecule B10 had a Kd above 1000 nM.

In turn, B11 gave a Kd above 1000 nM.

In turn, B12 displayed a Kd above 1000 nM. As for B13, the figure is above 1000 nM.

Consider B14, for which the equilibrium dissociation constant (Kd) is above 1000 nM.

The molecule B15 yielded a Kd above 1000 nM. Turning to B16, the Kd is above 1000 nM.

(Values after patent US6127119, “Nucleic acid ligands of tissue target” (NeXstar Pharmaceuticals, Inc.).)
